B1: SAM and SH3 domain-containing protein 1, residues 630 to 700; numbered along this chain, O94885 (parent)
chain: GRPPQPKSVEDLLDRINLKEHMPTFLFNGYEDLDTFKLLEEEDLDELNIRDPEHRAVLLTAVELLQEYDSN

We go through 38 variants from the Human Domainome abundance scans (Beltran et al. 2025).

± gives the uncertainty stated by the source.

The data set covers variants of B1. The data set can be described thus: abundance fitness (aPCA) (normalised: wild type 0, dead -1); higher = more abundant; growth selection in yeast, the domain comes from the species named. As to conditions: Homo sapiens.
GRPPQPKSVEDLLDRINLKEHMPTFLFNGREDLDTFKLLEEEDLDELNIRDPEHRAVLLTAVELLQEYDSN [Y30R]: the abundance fitness was -0.891 ± 0.068.
Regarding GRPPQPKSVEDLLDRINLKEHMPTFLFNGYEDLDTFKLLEEEDLDELNIRDPEHRAVLLTAVELLQEYASN [D69A], the abundance fitness is -0.386 ± 0.047.
For GRPPQPKSVEDLLDRINLDEHMPTFLFNGYEDLDTFKLLEEEDLDELNIRDPEHRAVLLTAVELLQEYDSN [K19D] the value was -0.643 ± 0.079.
As for GRPPQPKSVEDLLDRINLKEHMPTFLFNGYEDLDTFKLLEEEDLDELNIRDPEHRAVLLMAVELLQEYDSN [T60M], the abundance fitness was -0.385 ± 0.055.
GRPPQPKSVEDLLDRINLKEHMPTFLFNGYEDLDTFKLLEEEDLDELNIRDPEHRAVLLVAVELLQEYDSN [T60V]: the abundance fitness is -0.735 ± 0.069.
GRPPQPKSVEDLLDRINLKEHMPTFLFNGYEDLDVFKLLEEEDLDELNIRDPEHRAVLLTAVELLQEYDSN [T35V]: the abundance fitness is -0.492 ± 0.056.
Take GRPPQPKSVEDLLDRINLKEHMPTFLFNGYEDLDTFKLLEEEDLDELNIRDPEHRAVLTTAVELLQEYDSN [L59T]: the abundance fitness is -0.562 ± 0.055.
Regarding GRPPQPKSVEDLLDRINLKEHMPTFLFNGYEDLQTFKLLEEEDLDELNIRDPEHRAVLLTAVELLQEYDSN [D34Q], the abundance fitness was -0.116 ± 0.048.
With GRPPQPKSVEDLLDRINLKEHMPTFLFNGYEDLSTFKLLEEEDLDELNIRDPEHRAVLLTAVELLQEYDSN [D34S], the abundance fitness is -0.158 ± 0.035.
Take GRPPQPKSVEDLLDRINLKEHMPTFLFNGYEDLETFKLLEEEDLDELNIRDPEHRAVLLTAVELLQEYDSN [D34E]: the abundance fitness stood at 0.041 ± 0.048.
In the case of GRPPQPKSVEDLLDRINLKEHMPTFHFNGYEDLDTFKLLEEEDLDELNIRDPEHRAVLLTAVELLQEYDSN [L26H], the abundance fitness was -0.44 ± 0.066.
For GRPPQPKSVEDLLDRINLKEHMPTFLFNNYEDLDTFKLLEEEDLDELNIRDPEHRAVLLTAVELLQEYDSN [G29N] the value was -0.762 ± 0.09; for GRPPVPKSVEDLLDRINLKEHMPTFLFNGYEDLDTFKLLEEEDLDELNIRDPEHRAVLLTAVELLQEYDSN [Q5V], -0.149 ± 0.048; for GRPPQPKSVEDLLDRINLKEHMPTFLFNGYEDLDTFKLLEEEDLDELNIRDFEHRAVLLTAVELLQEYDSN [P52F], -1.04 ± 0.11.
For GRPPQPKSVEDLLDRNNLKEHMPTFLFNGYEDLDTFKLLEEEDLDELNIRDPEHRAVLLTAVELLQEYDSN [I16N], the abundance fitness is -0.326 ± 0.067.
For the variant GRPPQPKSVEDLLDRPNLKEHMPTFLFNGYEDLDTFKLLEEEDLDELNIRDPEHRAVLLTAVELLQEYDSN [I16P], the abundance fitness was -0.994 ± 0.099.
As to GRPPQPKSVEDLLDRKNLKEHMPTFLFNGYEDLDTFKLLEEEDLDELNIRDPEHRAVLLTAVELLQEYDSN [I16K], the abundance fitness was -0.735 ± 0.097.
For GRPPQPKSVEDLLDRINLKEHMPTFLFNGYEQLDTFKLLEEEDLDELNIRDPEHRAVLLTAVELLQEYDSN [D32Q] the value was -0.382 ± 0.047; for GRPPQPKSVEDLLDRINLKEHMPTFLFNGYEDLDTFKLLEEEDLDELNIWDPEHRAVLLTAVELLQEYDSN [R50W], 0.003 ± 0.055.
As for GRPPQPKSVEDLLDRINLKEEMPTFLFNGYEDLDTFKLLEEEDLDELNIRDPEHRAVLLTAVELLQEYDSN [H21E], the abundance fitness is -0.689 ± 0.09.
Next, GRPPQPKSVEDLLDRINCKEHMPTFLFNGYEDLDTFKLLEEEDLDELNIRDPEHRAVLLTAVELLQEYDSN [L18C]: -0.523 ± 0.066; GRPPQPKSVEDLLDRINPKEHMPTFLFNGYEDLDTFKLLEEEDLDELNIRDPEHRAVLLTAVELLQEYDSN [L18P]: -0.996 ± 0.085; GRPPQPKSVEDLLDRIQLKEHMPTFLFNGYEDLDTFKLLEEEDLDELNIRDPEHRAVLLTAVELLQEYDSN [N17Q]: -0.289 ± 0.053.
Turning to GRPPQPKSVEDLLDRINLKEHMPTFLFNGYEDLDTFKLLEEEDLDELNIRDPEHRAVLLTATELLQEYDSN [V62T], the abundance fitness is -0.476 ± 0.062.
For GRPPQPKSVEDLLDRINLKEHMPTFLFNGYEDLDTFKLLEEEDLDELNIRDPEHRAVLLTAEELLQEYDSN [V62E] the value was -0.489 ± 0.1.
Regarding GRPPQPKSVEDLLDRINLKEHMPTFLFNGYEDLDTFKLLEEEDLRELNIRDPEHRAVLLTAVELLQEYDSN [D45R], the abundance fitness was -0.415 ± 0.043.
As to GRPPQPKSVESLLDRINLKEHMPTFLFNGYEDLDTFKLLEEEDLDELNIRDPEHRAVLLTAVELLQEYDSN [D11S], the abundance fitness is -0.749 ± 0.052.
With GRFPQPKSVEDLLDRINLKEHMPTFLFNGYEDLDTFKLLEEEDLDELNIRDPEHRAVLLTAVELLQEYDSN [P3F], the abundance fitness was 0.044 ± 0.048.
For the variant GRVPQPKSVEDLLDRINLKEHMPTFLFNGYEDLDTFKLLEEEDLDELNIRDPEHRAVLLTAVELLQEYDSN [P3V], the abundance fitness worked out at 0.035 ± 0.042.
With GRPPQPLSVEDLLDRINLKEHMPTFLFNGYEDLDTFKLLEEEDLDELNIRDPEHRAVLLTAVELLQEYDSN [K7L], the abundance fitness was -0.323 ± 0.041.
On to GRPPQPKSVEDLLDRINLKEHMPTFLFNGYEDLDTFKLLEEEYLDELNIRDPEHRAVLLTAVELLQEYDSN [D43Y], for which the abundance fitness is -0.953 ± 0.076.
In the case of GRPPQPKSVEDLLDRINLKEHMPTFLFNGYEDLDTFKLLEEEDLDELPIRDPEHRAVLLTAVELLQEYDSN [N48P], the abundance fitness is -0.837 ± 0.16.
In the case of GRPPQPKSVEDLLDRINLKEHMSTFLFNGYEDLDTFKLLEEEDLDELNIRDPEHRAVLLTAVELLQEYDSN [P23S], the abundance fitness was determined as 0.038 ± 0.037.
For GRPPQPKSVEDLLDRINLKEHMMTFLFNGYEDLDTFKLLEEEDLDELNIRDPEHRAVLLTAVELLQEYDSN [P23M], the abundance fitness was -0.268 ± 0.061.
As for GRPPQPKSVEDLLDRINLKCHMPTFLFNGYEDLDTFKLLEEEDLDELNIRDPEHRAVLLTAVELLQEYDSN [E20C], the abundance fitness was -0.124 ± 0.063.
Next, GRPPQPKSVEDLLDRINLKEHMPTFLFNGYEDLDTFKLLEEEDQDELNIRDPEHRAVLLTAVELLQEYDSN [L44Q]: -0.873 ± 0.089; GRPPQPKSVEDLLDRINLKEHMPTFLFNGYEDLDTFKLLEEEDGDELNIRDPEHRAVLLTAVELLQEYDSN [L44G]: -0.819 ± 0.065.
Consider GRPPQPKSVEDLLDRINLKEHMPTFLFNGYEDLDTFKLLEEEDKDELNIRDPEHRAVLLTAVELLQEYDSN [L44K], for which the abundance fitness was -0.746 ± 0.076.
